Test results: US20240132578A1

Experiments:
Experiment in all cases: cell-based or functional assay
[1] = target: Envelope protein of control pseudovirus MuLV (MuLV)
[2] = target: HIV-1 92RW020 envelope glycoprotein (Env), on pseudovirus (HIV-1 isolate 92RW020 (clade A))
[3] = target: HIV-1 ADA envelope glycoprotein (Env), on pseudovirus (HIV-1 isolate ADA)
[4] = target: HIV-1 Env of pseudovirus AC10 (HIV-1)
[5] = target: HIV-1 Env of pseudovirus CAAN (HIV-1)
[6] = target: HIV-1 Env of pseudovirus CAP45 (HIV-1)
[7] = target: HIV-1 Env of pseudovirus DU156 (HIV-1)
[8] = target: HIV-1 Env of pseudovirus DU422 (HIV-1)
[9] = target: HIV-1 Env of pseudovirus Du172 (HIV-1)
[10] = target: HIV-1 Env of pseudovirus PVO.4 (HIV-1)
[11] = target: HIV-1 Env of pseudovirus REJ04541 (HIV-1)
[12] = target: HIV-1 Env of pseudovirus THRO.18 (HIV-1)
[13] = target: HIV-1 Env of pseudovirus TR0.11 (HIV-1)
[14] = target: HIV-1 Env of pseudovirus ZM214 (HIV-1)
[15] = target: HIV-1 Env of pseudovirus ZM233 (HIV-1)
[16] = target: HIV-1 Env of pseudovirus ZM249 (HIV-1)
[17] = target: HIV-1 JR-FL Env E168K, on pseudovirus (HIV-1 isolate JR-FL (clade B))
[18] = target: HIV-1 Env of isolate 6535.3 (subtype B) (HIV-1)
[19] = target: HIV-1 Env of isolate 92BR020 (subtype B) (HIV-1)
[20] = target: HIV-1 Env of isolate 93TH305 (subtype B) (HIV-1)
[21] = target: HIV-1 Env of isolate APV 13 (subtype B) (HIV-1)
[22] = target: HIV-1 Env of isolate APV 6 (subtype B) (HIV-1)
[23] = target: HIV-1 Env of isolate APV_17 (subtype B) (HIV-1)
[24] = target: HIV-1 Env of isolate MGRM-G-001 (subtype G), on pseudovirus (HIV-1)
[25] = target: HIV-1 Env of isolate MGRM-G-004 (subtype G), on pseudovirus (HIV-1)
[26] = target: HIV-1 Env of isolate MGRM-G-006 (subtype G), on pseudovirus (HIV-1)
[27] = target: HIV-1 Env of isolate MGRM-G-009 (subtype G), on pseudovirus (HIV-1)
[28] = target: HIV-1 Env of isolate MGRM-G-011 (subtype G), on pseudovirus (HIV-1)
[29] = target: HIV-1 Env of isolate MGRM-G-013 (subtype G), on pseudovirus (HIV-1)
[30] = target: HIV-1 Env of isolate MGRM-G-014 (subtype G), on pseudovirus (HIV-1)
[31] = target: HIV-1 Env of isolate MGRM-G-015 (subtype G), on pseudovirus (HIV-1)
[32] = target: HIV-1 Env of isolate MGRM-G-016 (subtype G), on pseudovirus (HIV-1)
[33] = target: HIV-1 Env of isolate MGRM-G-017 (subtype G), on pseudovirus (HIV-1)
[34] = target: HIV-1 Env of isolate MGRM-G-019 (subtype G), on pseudovirus (HIV-1)
[35] = target: HIV-1 Env of isolate MGRM-G-024 (subtype G), on pseudovirus (HIV-1)
[36] = target: HIV-1 Env of isolate MGRM-G-025 (subtype G), on pseudovirus (HIV-1)
[37] = target: HIV-1 Env of isolate MGRM-G-027 (subtype G), on pseudovirus (HIV-1)
[38] = target: HIV-1 Env of isolate MGRM-G-028 (subtype G), on pseudovirus (HIV-1)
[39] = target: aMLV envelope, on pseudovirus (negative control)

B1: 1503_H05 (PG16) (TCN-119) (antibody, V domains shown)
VH: QEKLVESGGGVVQPGGSLRLSCLASGFTFHKYGMHWVRQAPGKGLEWVALISDDGMRKYHSDSMWGRVTISRDNSKNTLYLQFSSLKVEDTAMFFCAREAGGPIWHDDVKYYDFNDGYYNYHYMDVWGKGTIVTVSS
VL: QSALTQPASVSGSPGQTITISCNGTRSDVGGFDSVSWYQQSPGKAPKVMVFDVSHRPSGISNRFSGSKSGNTASLTISGLHIEDEGDYFCSSLTDRSHRIFGGGTKVTVLG
[1]
  IC50, pseudovirus neutralization (TZM-bl assay), control virus: > 25 µg/mL
[2]
  IC50 (ug/ml), pseudovirus neutralization, TZM-bl assay: 0.02 µg/mL
[3]
  IC50 (ug/ml), pseudovirus neutralization, TZM-bl assay: 0.003 µg/mL
[4]
  IC50, pseudovirus neutralization (TZM-bl assay): < 0.01 µg/mL
[5]
  IC50, pseudovirus neutralization (TZM-bl assay): 13.5 µg/mL
[6]
  IC50, pseudovirus neutralization (TZM-bl assay): < 0.01 µg/mL
[7]
  IC50, pseudovirus neutralization (TZM-bl assay): < 0.01 µg/mL
[8]
  IC50, pseudovirus neutralization (TZM-bl assay): 0.71 µg/mL
[9]
  IC50, pseudovirus neutralization (TZM-bl assay): < 0.01 µg/mL
[10]
  IC50, pseudovirus neutralization (TZM-bl assay): 11 µg/mL
[11]
  IC50, pseudovirus neutralization (TZM-bl assay): 0.22 µg/mL
[12]
  IC50, pseudovirus neutralization (TZM-bl assay): 4.12 µg/mL
[13]
  IC50, pseudovirus neutralization (TZM-bl assay): 4.3 µg/mL
[14]
  IC50, pseudovirus neutralization (TZM-bl assay): > 25 µg/mL
[15]
  IC50, pseudovirus neutralization (TZM-bl assay): < 0.01 µg/mL
[16]
  IC50, pseudovirus neutralization (TZM-bl assay): < 0.01 µg/mL
[17]
  IC50 (ug/ml), pseudovirus neutralization, TZM-bl assay: 0.002 µg/mL

B2: 1456_A12 (PG16) (TCN-117) (antibody, V domains shown)
VH: HEQLVEAGGGVVQPGGSLRLSCLASGFTFHKYGMHWVRQAPGKGLEWVALISDDGMRKYHSDSMWGRVTISRDNSKNTLYLQFSSLRVEDTAMFFCAREAGGPIWHDDVKYYDFNDGYYNYHYMDVWGKGTKVTVSS
VL: QSALTQPASVSGSPGQTITISCNGTSRDVGGFDSVSWYQQSPGKAPKVMVFDVSHRPSGMSNRFSGSKSGNTASLTISGLHIEDEGDYFCSSLTDRSHRIFGGGTKLTVLG
[1]
  IC50, pseudovirus neutralization (TZM-bl assay), control virus: > 25 µg/mL
[2]
  IC50 (ug/ml), pseudovirus neutralization, TZM-bl assay: 0.05 µg/mL
[3]
  IC50 (ug/ml), pseudovirus neutralization, TZM-bl assay: 0.005 µg/mL
[4]
  IC50, pseudovirus neutralization (TZM-bl assay): < 0.01 µg/mL
[5]
  IC50, pseudovirus neutralization (TZM-bl assay): 10.6 µg/mL
[6]
  IC50, pseudovirus neutralization (TZM-bl assay): < 0.01 µg/mL
[7]
  IC50, pseudovirus neutralization (TZM-bl assay): < 0.01 µg/mL
[8]
  IC50, pseudovirus neutralization (TZM-bl assay): 0.36 µg/mL
[9]
  IC50, pseudovirus neutralization (TZM-bl assay): < 0.01 µg/mL
[10]
  IC50, pseudovirus neutralization (TZM-bl assay): 10.4 µg/mL
[11]
  IC50, pseudovirus neutralization (TZM-bl assay): < 0.01 µg/mL
[12]
  IC50, pseudovirus neutralization (TZM-bl assay): 2.08 µg/mL
[13]
  IC50, pseudovirus neutralization (TZM-bl assay): 3.05 µg/mL
[14]
  IC50, pseudovirus neutralization (TZM-bl assay): > 25 µg/mL
[15]
  IC50, pseudovirus neutralization (TZM-bl assay): < 0.01 µg/mL
[16]
  IC50, pseudovirus neutralization (TZM-bl assay): < 0.01 µg/mL
[17]
  IC50 (ug/ml), pseudovirus neutralization, TZM-bl assay: 0.003 µg/mL

B3: PGT-137 (antibody, V domains shown)
VH: EVHLEESGPGLVRPSETLSLTCTASGGSIRGGEWGDSDYHWGWVRHSPEKGLEWIGSIHWRGTTHYNAPFRGRGRLSIDLSRNQFSLRLTSVTAEDTAVYYCVKHKYHDIVMVVPIAGWFDPWGQGLQVTVSS
VL: EIMMTQSPAILSVSPGDRATLSCRASQSVKNNLAWYQKRPGQAPRLLIFDTSSRASGIPARFSGGGSGTEFTLTVNSMQSEDFATYYCQQYEEWPRTFGQGTKVEIK
[18]
  IC50 (µg/mL), pseudovirus neutralization: > 50 µg/mL
[19]
  IC50 (µg/mL), pseudovirus neutralization: 7.81 µg/mL
[20]
  IC50 (µg/mL), pseudovirus neutralization: > 50 µg/mL
[21]
  IC50 (µg/mL), pseudovirus neutralization: > 50 µg/mL
[22]
  IC50 (µg/mL), pseudovirus neutralization: > 50 µg/mL
[23]
  IC50 (µg/mL), pseudovirus neutralization: > 50 µg/mL
[24]
  IC50 (µg/mL), neutralization of pseudovirus: 41.7 µg/mL
[25]
  IC50 (µg/mL), neutralization of pseudovirus: > 50 µg/mL
[26]
  IC50 (µg/mL), neutralization of pseudovirus: > 50 µg/mL
[27]
  IC50 (µg/mL), neutralization of pseudovirus: > 50 µg/mL
[28]
  IC50 (µg/mL), neutralization of pseudovirus: > 50 µg/mL
[29]
  IC50 (µg/mL), neutralization of pseudovirus: > 50 µg/mL
[30]
  IC50 (µg/mL), neutralization of pseudovirus: > 50 µg/mL
[31]
  IC50 (µg/mL), neutralization of pseudovirus: > 50 µg/mL
[32]
  IC50 (µg/mL), neutralization of pseudovirus: > 50 µg/mL
[33]
  IC50 (µg/mL), neutralization of pseudovirus: 34.9 µg/mL
[34]
  IC50 (µg/mL), neutralization of pseudovirus: 0.126 µg/mL
[35]
  IC50 (µg/mL), neutralization of pseudovirus: 0.051 µg/mL
[36]
  IC50 (µg/mL), neutralization of pseudovirus: > 50 µg/mL
[37]
  IC50 (µg/mL), neutralization of pseudovirus: 0.228 µg/mL
[38]
  IC50 (µg/mL), neutralization of pseudovirus: > 50 µg/mL
[39]
  IC50 (µg/mL), neutralization of pseudovirus: > 50 µg/mL
